# Reference: the supplement of paper PMC7877785
# ± gives the uncertainty stated by the source.
# Experiment: self-splicing fitness, log relative to wild type (ln ratio); higher = more splicing; Tetrahymena group I intron in knt gene, E. coli kanamycin selection, DiMSum; sequences stand for … in CUCUCU…GGAGGGAAAAGUUAUCAGGCAUGCACCUGGUAGCUAGUCUUUAAACCAAUAGAUUGCAUCGGUUUAAAAGGCAAGACCGUCAAAUUGCGGGAAAGGGGUCAACAGCCGUUCAGUACCAAGUCUCAGGGGAAACUUUGAGAUGGCCUUGCAAAGGGUAUGGUAAUAAGCUGACGGACAUGGUCCUAACCACGCAGCCAAGUCCUAAGUCAACAGAUCUUCUGUUGAUAUGGAUGCAGUUCACAGACUAAAUGUCGGUCGGGGAAGAUGUAUUCUUCUCAUAAGAUAUAGUCGGACCUCUCCUUAAUGGGAGCUAGCGGAUGAAGUGAUGCAACACUGGAGCCGCUGGGAACUAAUUUGUAUGCGAAAGUAUAUUGAUUAGUUUUGGAGUACUCGUGGUCG
# Outline: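 Six replicate transformations of E. coli BL21(DE3) with a pET-22b(+) library were grown overnight at 37°C or 30°C. The library randomised all eight P1ex-region intron nucleotides, the intron lying in the knt kanamycin-resistance gene, and plates were LB agar with or without 25 μg/mL kanamycin plus 100 μg/mL carbenicillin, 50 μM IPTG and 0.2% rhamnose. Pooled colonies were amplicon-sequenced on an Illumina HiSeq 2500, and fitness is the DiMSum error-weighted combination of wild-type-normalised replicate fold changes, kanamycin versus none.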
Sequence,self-splicing fitness (ln) (37 °C),self-splicing fitness (ln) (30 °C)
CCCGAGCAAUAUUACGCUUU,-1.35 ± 0.19,–
GCAAAGCAAUAUUACGUUGU,-2.99 ± 0.15,-3.71 ± 0.15
AAGAAGCAAUAUUACGGGCG,-0.421 ± 0.11,-1.48 ± 0.081
AGACAGCAAUAUUACGUAAG,-0.396 ± 0.088,-1.33 ± 0.075
GUAGAGCAAUAUUACGAGGA,–,-2.61 ± 0.26
GAACAGCAAUAUUACGUAGG,-0.569 ± 0.066,-2.12 ± 0.057
AUUGAGCAAUAUUACGGUUG,-2.48 ± 0.29,-3.28 ± 0.31
CAAGAGCAAUAUUACGUAUA,-1.92 ± 0.15,-4.95 ± 0.3
GAUCAGCAAUAUUACGGGAC,-0.976 ± 0.1,-1.51 ± 0.085
UGUUAGCAAUAUUACGCCUA,0.387 ± 0.15,-1.17 ± 0.13
GGUCAGCAAUAUUACGCUGC,-3.17 ± 0.47,-1.88 ± 0.25
CUCUAGCAAUAUUACGCGUU,-2.14 ± 0.18,–
CACAAGCAAUAUUACGUGUC,-1.63 ± 0.12,-3.86 ± 0.15
CUAGAGCAAUAUUACGCCAG,-0.759 ± 0.21,-0.97 ± 0.1
AUCAAGCAAUAUUACGCCGG,0.522 ± 0.2,-1.22 ± 0.19
CGGGAGCAAUAUUACGAUGU,-2.53 ± 0.39,-2.47 ± 0.39
UCGAAGCAAUAUUACGCGAC,-2.2 ± 0.26,-3.47 ± 0.25
AUGUAGCAAUAUUACGUAUA,-1.58 ± 0.21,-1.99 ± 0.2
GUUGAGCAAUAUUACGCUAA,-2.26 ± 0.26,-2.15 ± 0.27
AGGGAGCAAUAUUACGCCAA,-2.67 ± 0.38,–
ACAUAGCAAUAUUACGUGCU,-1.1 ± 0.085,-0.99 ± 0.072
ACCUAGCAAUAUUACGAUUC,-0.58 ± 0.097,-1.72 ± 0.083
AGUUAGCAAUAUUACGGGUA,-0.0817 ± 0.2,-2.61 ± 0.39
UCCAAGCAAUAUUACGUACC,-2.18 ± 0.26,-2.68 ± 0.19
AAACAGCAAUAUUACGCCAG,-2.11 ± 0.22,-4.93 ± 0.39

Sequence,self-splicing fitness (ln) (37 °C),self-splicing fitness (ln) (30 °C)
CGCUAGCAAUAUUACGGCUU,-0.559 ± 0.1,-0.961 ± 0.081
UCCCAGCAAUAUUACGACCC,-2.44 ± 0.35,-2.89 ± 0.31
UCGUAGCAAUAUUACGCUGC,-2.48 ± 0.36,–
AGGGAGCAAUAUUACGCUCG,-2.12 ± 0.3,-2.31 ± 0.27
UAUCAGCAAUAUUACGCGAC,-2.3 ± 0.33,-3.07 ± 0.37
CCAUAGCAAUAUUACGUGCA,-3.02 ± 0.24,-2.77 ± 0.19
AGCAAGCAAUAUUACGCGCG,-0.145 ± 0.09,-1.54 ± 0.072
CUCGAGCAAUAUUACGGGAU,-1.93 ± 0.3,-3.84 ± 0.36
UCAGAGCAAUAUUACGAUGU,-1.41 ± 0.093,-1.87 ± 0.077
CGAGAGCAAUAUUACGGCUC,–,-1.09 ± 0.21
AGCCAGCAAUAUUACGAAUU,-1.44 ± 0.11,-3.14 ± 0.15
AAAUAGCAAUAUUACGGGCG,-0.403 ± 0.096,-1.29 ± 0.08
CGUGAGCAAUAUUACGCAAA,-1.84 ± 0.46,–
UUGCAGCAAUAUUACGAGUC,-2.64 ± 0.28,-3.64 ± 0.2
GGUGAGCAAUAUUACGCUAC,–,-2.34 ± 0.2
GAGGAGCAAUAUUACGAACA,-2.07 ± 0.16,-2.69 ± 0.23
CCAGAGCAAUAUUACGGUGA,-2.6 ± 0.23,-3.55 ± 0.2
AAGGAGCAAUAUUACGCAUC,-2.52 ± 0.19,-5.17 ± 0.36
UCCAAGCAAUAUUACGGCGC,-2.5 ± 0.15,-2.4 ± 0.14
AGGGAGCAAUAUUACGAUGG,-1.29 ± 0.32,–
CCAUAGCAAUAUUACGCGAU,-2.91 ± 0.43,-2.56 ± 0.27
AACAAGCAAUAUUACGGAAU,-1.75 ± 0.14,-2.64 ± 0.13
AUUAAGCAAUAUUACGCAGA,-1.36 ± 0.2,-2.88 ± 0.27
AUGUAGCAAUAUUACGCUUG,-0.51 ± 0.15,-1.06 ± 0.14
UGGCAGCAAUAUUACGUAGA,-0.264 ± 0.094,-0.926 ± 0.084

Sequence,self-splicing fitness (ln) (37 °C),self-splicing fitness (ln) (30 °C)
UCUGAGCAAUAUUACGUGUA,-0.868 ± 0.13,-2.67 ± 0.18
AAGGAGCAAUAUUACGCGCA,-0.97 ± 0.2,-1.82 ± 0.18
CCCUAGCAAUAUUACGGGCC,-1.74 ± 0.27,-3.25 ± 0.19
CAUUAGCAAUAUUACGACCU,-1.77 ± 0.47,-1.77 ± 0.45
ACACAGCAAUAUUACGUAUC,-2.8 ± 0.15,-3.71 ± 0.15
CCGAAGCAAUAUUACGUGUU,-2.89 ± 0.15,-3.93 ± 0.16
AAAGAGCAAUAUUACGACCC,–,-2.42 ± 0.45
GACGAGCAAUAUUACGGCUA,-0.653 ± 0.11,-0.73 ± 0.11
GCAGAGCAAUAUUACGGGGU,-3.16 ± 0.31,-3.34 ± 0.23
AUCAAGCAAUAUUACGCUUA,-0.843 ± 0.1,-1.75 ± 0.1
GCGGAGCAAUAUUACGAGCG,0.152 ± 0.35,-1.01 ± 0.17
AUGGAGCAAUAUUACGUCUU,-1.81 ± 0.21,-2.52 ± 0.16
ACACAGCAAUAUUACGAACA,-1.18 ± 0.079,-1.69 ± 0.082
UACGAGCAAUAUUACGUGAU,-2.45 ± 0.2,-4.17 ± 0.21
ACGUAGCAAUAUUACGGGGC,-2.73 ± 0.12,-4.11 ± 0.14
UGCGAGCAAUAUUACGUGUC,-2.01 ± 0.26,-4.36 ± 0.33
UUUUAGCAAUAUUACGCUAC,-2.79 ± 0.31,–
GUAGAGCAAUAUUACGAAGG,–,-1.87 ± 0.31
UAUUAGCAAUAUUACGCCCA,-0.366 ± 0.3,-0.378 ± 0.23
GUUAAGCAAUAUUACGUGUU,-1.11 ± 0.1,-3.27 ± 0.14
GGUUAGCAAUAUUACGGCAG,-1.43 ± 0.21,-1.83 ± 0.19
GCACAGCAAUAUUACGGUUA,-0.384 ± 0.059,-0.902 ± 0.055
CGGGAGCAAUAUUACGACCA,–,-1.08 ± 0.31
CGCAAGCAAUAUUACGAUUC,-2.17 ± 0.15,-3.18 ± 0.18
GAAUAGCAAUAUUACGUUUA,-1.01 ± 0.15,-1.79 ± 0.15

Sequence,self-splicing fitness (ln) (37 °C),self-splicing fitness (ln) (30 °C)
UUGUAGCAAUAUUACGGCUG,-0.373 ± 0.22,-2.35 ± 0.23
AACCAGCAAUAUUACGGUGG,-1.44 ± 0.1,-2.33 ± 0.086
CUGCAGCAAUAUUACGGGGA,-2.22 ± 0.18,-2.72 ± 0.19
UUUCAGCAAUAUUACGGCAG,0.0981 ± 0.19,-0.779 ± 0.17
ACCAAGCAAUAUUACGUACA,-1.05 ± 0.085,-1.46 ± 0.079
UACGAGCAAUAUUACGUAUU,-2.47 ± 0.41,-3.45 ± 0.25
AAACAGCAAUAUUACGUGAA,-0.646 ± 0.072,-1.92 ± 0.073
CCCAAGCAAUAUUACGGAAU,-2.94 ± 0.22,-3.88 ± 0.26
CCAUAGCAAUAUUACGCGGC,-2.87 ± 0.43,-4.01 ± 0.35
AAAUAGCAAUAUUACGCCAA,-1.86 ± 0.13,-2.54 ± 0.18
GGUAAGCAAUAUUACGUUCG,-0.4 ± 0.18,-0.34 ± 0.15
UCGGAGCAAUAUUACGAUGU,-1.2 ± 0.13,-2.81 ± 0.17
GUGUAGCAAUAUUACGAGCG,-0.927 ± 0.34,–
AAAUAGCAAUAUUACGAAAG,-1.6 ± 0.14,-3.48 ± 0.18
CAAUAGCAAUAUUACGGGAA,-1.94 ± 0.15,-3.21 ± 0.2
ACGAAGCAAUAUUACGCGUU,-2 ± 0.21,-4.06 ± 0.33
ACAGAGCAAUAUUACGGCUU,-1.99 ± 0.18,-3.27 ± 0.23
GGAAAGCAAUAUUACGAGCU,0.478 ± 0.12,-0.199 ± 0.11
GAGGAGCAAUAUUACGAUAC,-2.05 ± 0.38,-1.9 ± 0.18
AGUUAGCAAUAUUACGGGGG,-1.38 ± 0.31,-2.04 ± 0.27
UUAAAGCAAUAUUACGGGCC,-1.25 ± 0.28,-1.7 ± 0.21
UAACAGCAAUAUUACGGGAG,-1.62 ± 0.096,-2.3 ± 0.1
UAAUAGCAAUAUUACGUUAC,-2.2 ± 0.23,-4.32 ± 0.34
GAGAAGCAAUAUUACGGAGG,-2.47 ± 0.21,–
CGUUAGCAAUAUUACGAGCG,-2.63 ± 0.21,-3.69 ± 0.21
